The target of test [1] is T1, purified recombinant GRP78 protein (GRP78-His) (human, UniProt P11021 19-654, NT-647 fluorescent label (in the MST only)). Nature of the test: MST.
The target in test [2] is T1, purified recombinant GRP78 protein …. Kind of test: ITC.

T1 sequence (P11021 19-654): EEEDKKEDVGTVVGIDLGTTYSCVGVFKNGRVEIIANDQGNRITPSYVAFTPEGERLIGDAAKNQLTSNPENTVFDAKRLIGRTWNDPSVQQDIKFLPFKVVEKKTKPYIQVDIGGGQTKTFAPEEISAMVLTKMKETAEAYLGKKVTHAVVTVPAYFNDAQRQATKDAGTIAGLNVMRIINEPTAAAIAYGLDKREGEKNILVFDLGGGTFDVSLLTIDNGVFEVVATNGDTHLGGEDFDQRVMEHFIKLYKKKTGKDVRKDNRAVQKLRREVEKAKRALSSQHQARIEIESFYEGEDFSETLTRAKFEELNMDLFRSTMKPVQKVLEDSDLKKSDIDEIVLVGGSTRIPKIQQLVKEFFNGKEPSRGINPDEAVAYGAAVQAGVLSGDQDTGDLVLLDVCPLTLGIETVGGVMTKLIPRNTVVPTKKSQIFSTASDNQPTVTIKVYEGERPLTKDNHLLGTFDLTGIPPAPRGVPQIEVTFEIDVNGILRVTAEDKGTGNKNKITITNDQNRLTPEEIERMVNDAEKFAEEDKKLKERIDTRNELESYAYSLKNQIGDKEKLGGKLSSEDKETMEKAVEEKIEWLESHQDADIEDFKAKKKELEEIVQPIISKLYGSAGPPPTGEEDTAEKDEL

B1: GST-preS1 truncated protein preS1-p2 (residues 25-90) (domain or fragment)
chain: FPDHQLDPAFGANSNNPDWDFNPNKDHWPEANQVGAGAFGPGFTPPHGGLLGWSPQAQGILTTLPA
Regarding B1, the Kd in test [1] was found to be 1200 nM.

Consider QGIMQTVPAN [pep59], for which the equilibrium dissociation constant (Kd) in test [2] came out at 10.6 nM.

With DPAFGANSL [pep56], in test [2], the Kd turned out to be 6.59 nM.

B2: GST-preS1 truncated protein preS1-p3 (residues 66-119) (domain or fragment)
chain: GFTPPHGGLLGWSPQAQGILTTLPAAPPPASTNRQSGRQPTPISPPLRDSHPQA
Turning to B2, in test [1], the Kd came out at 431 nM.

For the origin of these results see publication doi:10.1101/2021.12.08.471876 (bioRxiv, 2021).
